Paper PMC11958657

Legend:
[1] = target: L4-MHC ( peptide presented by H-2K^b) (mouse | human); test: SPR
[2] = target: R4-MHC ( peptide presented by H-2K^b) (mouse | human); test: SPR
[3] = target: R4-MHC (SIYRYYGL peptide presented by H-2K^b) (mouse | human)
[4] = target: L4-MHC (SIYLYYGL peptide presented by H-2K^b) (mouse | human); test: micropipette single-cell adhesion frequency assay; TCR on a hybridoma T cell held by a micropipette, brought into contact with a streptavidin-coated biotinylated human RBC carrying biotinylated pMHC; bi-molecular TCR-pMHC (CD8-); zero force; 2D effective constants from the fit of adhesion frequency against contact time
[5] = target: R4-MHC (SIYRYYGL peptide presented by H-2K^b) (mouse | human); test: ultra-stable biomembrane force probe (U-BFP), force-clamp bond lifetimes; biotinylated pMHC on a streptavidin bead on a red blood cell probe against a TCR-expressing T cell without CD8; adhesion frequency below 20%; DMEM with 0.5% BSA
[6] = target: L4-MHC (SIYLYYGL peptide presented by H-2K^b) (mouse | human); test: as above
[7] = target: R4-MHC (SIYRYYGL peptide presented by H-2K^b) (mouse | human); test: micropipette single-cell adhesion frequency assay; biotinylated pMHC on streptavidin-coated red blood cells against a TCR-expressing T cell; 2D effective binding affinity AcKa; whether CD8 was on the T cells is not stated
[8] = target: L4-MHC (SIYLYYGL peptide presented by H-2K^b) (mouse | human); test: as above
[9] = target: R4-MHC (SIYRYYGL peptide presented by H-2K^b) (mouse | human); test: ultra-stable biomembrane force probe (U-BFP), force-clamp bond lifetimes; as a3, but the T cell expresses wild-type CD8αβ beside the TCR (TCR–pMHC–CD8 tri-molecular interaction)
[10] = target: L4-MHC (SIYLYYGL peptide presented by H-2K^b) (mouse | human); test: as above
[11] = target: R4-MHC (SIYRYYGL peptide presented by H-2K^b) (mouse | human); remark: listed apart in the source
[12] = target: L4-MHC (SIYLYYGL peptide presented by H-2K^b) (mouse | human)
[13] = target: R4-MHC (SIYRYYGL peptide presented by H-2K^b) (mouse | human); test: ultra-stable biomembrane force probe (U-BFP), force-clamp bond lifetimes; as a3, but the 2C hybridoma cell expresses CD8 with CD8β-Ile2Ala at a level matched to WT CD8

Kd [1] [nM]	Kd [2] [nM]	koff [4] [s⁻¹]	bond lifetime ratio R4-MHC over L4-MHC, high force regime (16–19 pN), without CD8 [5] [fold]	bond lifetime ratio R4-MHC over L4-MHC, low force regime (2–5 pN), without CD8 [5] [fold]	bond lifetime ratio R4-MHC over L4-MHC, medium force regime (9–12 pN), without CD8 [5] [fold]	2D effective binding affinity (AcKa) [7] [μm^4]	2D effective binding affinity (AcKa) [8] [μm^4]	bond lifetime ratio R4-MHC over L4-MHC, medium force regime (9–12 pN), with CD8 [9] [fold]	peak bond lifetime, with CD8 [9] [s]	Substance	further results
38200	20200									2C-TCR, soluble ectodomains	
		4.22	7.55	1.13	1.99	0.0013	0.00089	1.19	5.2	m33-TCR	peak bond lifetime (at ~12.85 pN), without CD8 [5]: 3.43 s; peak bond lifetime (at ~9.62 pN), without CD8 [6]: 1.82 s; CD8 enhancement power (bond lifetime with CD8 over without CD8), medium force regime [9]: 3.4 fold; CD8 enhancement power (bond lifetime with CD8 over without CD8), medium force regime [10]: 5.7 fold; peak bond lifetime, with CD8 [10]: 3.99 s; R4 peptide concentration (on RMA-S cells) at which m33 hybridoma T cells release IL-2, without CD8 [11]: 100 pM; L4 peptide concentration (on RMA-S cells) at which m33 hybridoma T cells release IL-2, with CD8 [12]: 1 nM
		4.92	2.63	0.34	3.77	0.0016	0.00099	0.96	5.95	m67-TCR	peak bond lifetime, without CD8 [5]: 5.94 s; peak bond lifetime, without CD8 [6]: 2.56 s; CD8 enhancement power (bond lifetime with CD8 over without CD8), medium force regime [10]: 4.36 fold; peak bond lifetime, with CD8 [10]: 5.09 s; R4 peptide concentration (on RMA-S cells) at which m67 hybridoma T cells release IL-2, without CD8 [11]: 10 nM; L4 peptide concentration (on RMA-S cells) at which m67 hybridoma T cells release IL-2, with CD8 [12]: 100 pM

The remaining lines, values behind:

Substance	Kd [1] [nM]	Kd [2] [nM]	koff [4] [s⁻¹]	bond lifetime ratio R4-MHC over L4-MHC, high force regime (16–19 pN), without CD8 [5] [fold]	bond lifetime ratio R4-MHC over L4-MHC, low force regime (2–5 pN), without CD8 [5] [fold]	bond lifetime ratio R4-MHC over L4-MHC, medium force regime (9–12 pN), without CD8 [5] [fold]	2D effective binding affinity (AcKa) [7] [μm^4]	2D effective binding affinity (AcKa) [8] [μm^4]	bond lifetime ratio R4-MHC over L4-MHC, medium force regime (9–12 pN), with CD8 [9] [fold]	peak bond lifetime, with CD8 [9] [s]	further results
m67-TCR, soluble ectodomains	96.2	26.3									
mouse CD8αβ, wild type (from UniProt P01731 28-247; P10300 22-213) (receptor)											TCR specificity of 2C hybridoma cells (ratio of IL-2 sensitivities for R4 over L4) with WT CD8 [3]: 65500
m33-TCR, soluble ectodomains	567	187									
mouse CD8αβ with CD8β-Ile2Ala (from UniProt P01731 28-247; P10300 22-213) (receptor)											TCR specificity of 2C hybridoma cells (ratio of IL-2 sensitivities for R4 over L4) with CD8β-Ile2Ala [3]: 7070
2C-TCR			6.61	5.1	1.3	3.38	0.0016	3.7e-05	10	0.8	peak bond lifetime (at ~8.32 pN), without CD8 [5]: 0.3 s; CD8 enhancement power (bond lifetime with CD8 over without CD8), medium force regime [9]: 3.04 fold; bond lifetime ratio R4-MHC over L4-MHC, medium force regime, with CD8β-Ile2Ala [13]: 4.81; fold reduction of CD8 enhancement power (CD8β-Ile2Ala against WT CD8) [13]: 2 times; peak bond lifetime, with CD8β-Ile2Ala [13]: 0.54 s; IL-2 production of 2C hybridoma T cells stimulated by RMA-S cells pulsed with R4 peptide, with CD8 against without CD8 [11]: > 100 fold
